Data: the RNAGym collection of RNA variant scans (doi:10.7554/elife.90254)

B1: LINE1-mini (parent)
chain: GGCAGAGCUCAACACAGCGUGGCAAAGUGGCUGUGGCUAGACUGCC

Variants of: B1
Experiment: self-cleavage, relative activity (ratio to wild type); higher = more cleavage; in vitro, sequencing; the parent is a self-cleaving ribozyme

Variant	self-cleavage
U9G C46G	0.05
A25G U38G	0.01
G7U A25G	0.1
A24U A26G	0.84
U28G G40C	0.07
C15U G22A	1.21
A16C A26U	0.05
C23G U43C	0.24
G1C G27A	0.16
G17C U34C	0.09
U20A U34G	0.25
G7C A24U	0.19
G2U C13G	0.02
C8A C37G	0.1
G1A G29C	0.28
C3A A26C	0.44
C8A C45A	0.7
A11G G17A	0.04
C3U G30C	0.44
U28C G40U	0.17
C10A A41C	0.04
G2U U32G	0.03
G27U U32C	0.19
A14C G27A	0.09

Variant	self-cleavage
U28G U34C	0.11
G2U C3G	0.26
C13G U43A	0.11
C8G G17A	0.08
A26G C37A	0.02
A6G U20C	0.1
A4U G27A	0.19
G2U G21U	0.14
G27U C45G	0.37
G35U A41G	0.08
C18U G35A	0.1
A4C G17U	0.08
A14C G27U	0.09
G29C G30C	0.23
A26G A41C	0.12
C15G G21U	0.07
C15G U38G	0.03
A12C G33A	0.05
C15U U32G	0.12
G5A U20C	0.06
G19U U20C	0.76
A11C G35C	0.03
A6U C13G	0.28
C18U C42G	0.05

Variant	self-cleavage
A12U G27A	0.3
A12U C31U	0.09
C18G C42G	0.04
C8U G35U	0.42
A25U A39G	0.07
G35A C45G	0.13
G19U G44A	0.27
G35A A39G	0.07
G27C U28A	0.54
A6G G29C	0.07
C13G	0.22
A4G U9A	0.21
A4U A24U	0.21
G7C G40C	0.05
C8U C46A	0.33
A12G G33A	0.07
A12C U32G	0.06
C18U G44U	0.07
G5A C18A	0.1
C31A G33C	0.1
U9A C37G	0.11
G1U G44U	0.15
G7A A24U	0.16
A6U G36C	0.25

Variant	self-cleavage
G22U G27A	1.04
G1A C46U	2.95
G2C C46G	0.16
G22U U38A	0.46
G21U A25C	1.44
C10G C45A	0.07
G40U C45A	0.09
A11G G17U	0.03
G33A C45A	0.1
G1C G36C	0.01
G17U A24G	0.09
C18A U34G	0.04
G17U G30C	0.59
A4G C15G	0.14
U34C U38A	0.11
G21C G35C	0.08
A6C C18G	0.24
G5U U20G	0.06
A6G C13G	0.13
G30U G36U	0.05
G40C C46G	0.08
G29C A39G	0.03
C13A U43G	0.18
G7U G36C	0.09

Variant	self-cleavage
U28G G36U	0.12
C18A A25U	1.21
C13A U43A	0.21
A16G G17C	0.31
G22C A24G	0.74
A14U A39U	0.57
A14U G27C	0.16
A11U G22C	0.07
G7A C8G	0.17
U38G G44U	0.03
G30C C42G	0.04
C15G C37A	0.06
C15G U32G	0.04
G29U A39C	0.21
C42G U43G	0.06
U20G A39U	0.56
G1C G36U	0.03
C10A C23G	0.07
G2U G33C	0.02
C8A U32G	0.45
A6G G40U	0.1
A12G C15A	0.02
A26G	0.87
A16U C37G	0.07

Variant	self-cleavage
G5C G7A	0.22
A24U G44A	0.44
A12C G27C	0.03
G2U C31A	0.04
A6C A39G	0.1
G1C C23G	0.08
G1C G5U	0.02
G17U A24U	0.25
G5U U38A	0.08
C18U A26U	1.72
G2C C13A	0.08
G30C C37U	0.1
G21A U34C	0.14
G1C U32G	0.04
G1U C37U	0.04
G19C A41G	0.03
G7A A39G	0.07
A6U A25U	0.72
G29A C45A	1.03
G7A U38G	0.02
A16C G27A	0.26
G7A G40A	0.19
G19C U43A	0.02
A16C C42U	0.06

Variant	self-cleavage
C13G G17A	0.06
G40U G44U	0.12
A6G U28C	0.05
A4U C15A	0.08
G29U C37U	0.05
C3G U43G	0.21
C10G A12U	0.03
C3U A24U	0.73
G1C C15A	0.02
A11C U34A	0.02
C3A C31G	0.13
G22A C31A	0.2
G19A U34A	0.1
G5A G35C	0.08
G22C U43G	0.06
C23U U28C	1.37
C13U A14C	0.09
G19A U43C	0.18
G7C U28G	0.08
A26U C31G	0.08
G29C U38C	0.11
C3G G29A	0.38
A41G C45A	0.09
C31U C46A	0.15

Variant	self-cleavage
A11G A41G	0.02
G7U A16G	0.16
C23A U43G	0.02
A16G G36C	0.05
G36C U43C	0.04
C13A G29C	0.06
G35C C45U	0.08
G30U C46G	1.29
A4C A24C	0.09
G7A A14U	0.16
C8G G27A	0.17
A25G G33U	0.05
C3A A39C	0.11
G17U G29U	0.43
U20G U28C	0.67
G5C A14G	0.04
A6U A26C	0.56
U20G G22A	0.55
A14C G44C	0.13
G1A A39U	1.46
C15G G33C	0.25
C10A G40C	0.02
C3G G7U	0.22
G2U G7A	0.07

Variant	self-cleavage
G1C A25C	0.1
G7C G44A	0.09
A6G A39G	0.03
C8U G44U	0.35
C8G A12C	0.02
A11U A12U	0.07
G2A G19C	0.19
G17C G40C	0.05
G2C C37G	0.05
G40A	0.14
G17A A24C	0.06
U9C A39C	0.02
C18A C23G	0.76
G7C A26G	0.11
G5C A25U	0.09
G35U U38A	0.12
C15G C18U	0.04
C8G A12G	0.03
A11U G17U	0.03
C18G U43A	0.07
A26U C31U	0.18
G1A C23A	0.95
C23A C46U	1.1
G19A U28C	0.51

Variant	self-cleavage
G27C G35U	0.07
A16U G22C	0.28
G22U U34A	0.19
G22U C23U	1.8
C8G G30U	0.2
A26U G27C	0.66
U34A C45A	0.08
C15G A16U	0.05
G5A A41C	0.06
C18A A41C	0.05
A6U G19U	0.46
G17C G36A	0.09
G21C C23G	0.53
G27A G44A	0.34
U9A G29U	0.15
A14G U20G	0.15
U9G U38A	0.06
C3U U34A	0.06
A14U G27A	0.37
A11U A14C	0.01
G17U C42U	0.06
A6U U9A	0.17
G21U A25U	1.88
A11U G40A	0.03

Variant	self-cleavage
U9C G17C	0.04
G1A G35U	0.17
G2C U32G	0.02
A4C A16U	0.05
C8U C45G	0.46
G17C C31A	0.65
A25G A39U	0.81
U38A C42U	0.21
U28G C42A	0.18
G7A U32C	0.17
G36A C45U	0.8
C8U G19A	0.35
G5U A11G	0.02
A24G G30C	1.12
A4C G30C	0.07
G19C C31U	0.58
G17U G36C	0.09
A6G C31A	0.07
U9A U34G	0.08
G36U A41U	0.1
G40U C42A	0.09
C13U G19C	0.07
A4U U43G	0.06
A14U G40C	0.08

Variant	self-cleavage
A6U A11C	0.06
G5C G29A	0.05
U9C C42U	0.04
G1A U43C	0.11
G5U U43A	0.08
U28G G30U	0.77
C18A C46G	0.47
G21C C45G	0.07
U38A A39C	0.49
G17C	0.79
G2U U38A	0.05
C10A G27C	0.04
G5C U28G	0.02
A12U C46A	0.27
G7A G35A	0.3
G29C C37A	0.02
A24C G33C	0.04
A25G C31G	0.27
C10G C13G	0.08
G5A A26C	0.18
C31A U32A	0.05
A6G U38A	0.06
C10U A25U	0.48
G5A C31A	0.08

Variant	self-cleavage
A14G U28G	0.3
A14G G40U	0.12
G1A U20A	1.27
A6C G7A	0.18
C8A A11C	0.05
G36A U38C	0.12
C15A G44C	0.04
C13U C23G	0.06
G2C U43G	0.04
G17A G29U	0.07
C13A G33U	0.05
A39U A41G	0.14
G21A A24C	1.61
U9G G30C	0.06
G29C A41C	0.04
A16C A24C	0.07
C18G C42A	0.07
U32A C45A	0.11
A4U C10U	0.19
G27A U32A	0.06
C37G G44A	0.04
U9C C37A	0.02
C23U U34G	0.3
G22C C42U	0.21

Variant	self-cleavage
U32A C46A	0.08
C18G C31G	0.04
C3A C45G	0.42
G19U G29A	0.93
G5A G17A	0.08
C3G A4C	0.11
A25U G44A	0.28
G21U G40A	0.29
G19A C31A	0.46
C10G U32G	0.02
G2C G19U	0.11
A26U C46A	0.77
A4G A41C	0.19
G2C G21C	0.25
C13A G33C	0.06
G17U G27C	0.22
G5C U9C	0.04
U32A G40A	0.06
G2U G29C	0.04
C18A G35U	0.07
A12G C13U	0.06
A14C C23G	0.11
